Data as given in US20230190901A1 (published 2023).

T1: MAGEC2 peptide on HLA-A*02 (human)
T1 peptide: ALIEVGPDHFCV

T2: MAGEC2 peptide on HLA-A*02 (human)
T2 peptide: FVYGEPREL


Columns and labels:
[1] = target: T1, MAGEC2 peptide on HLA-A*02; experiment: binding, other
[2] = target: T2, MAGEC2 peptide on HLA-A*02; experiment: binding, other

Binder | binding result [1] | binding result [2]
TCR of SEQ ID NOs 30 and 31 (TCR, V domains shown) Valpha: KQEVTQIPAALSVPEGENLVLNCSFTDSAIYNLQWFRQDPGKGLTSLLLIQSSQREQTSGRLNASLDKSSGRSTLYIAASQPGDSATYLCAVNEGSNYKLTFGKGTLLTVNP Vbeta: NAGVTQTPKFRILKIGQSMTLQCTQDMNHNYMYWYRQDPGMGLKLIYYSVGAGITDKGEVPNGYNVSRSTTEDFPLRLELAAPSQTSVYFCASSYSSPHYGYTFGSGTRLTVV | recognises | –
TCR of SEQ ID NOs 34 and 35 (TCR, V domains shown) Valpha: KQEVTQIPAALSVPEGENLVLNCSFTDSAIYNLQWFRQDPGKGLTSLLLIQSSQREQTSGRLNASLDKSSGRSTLYIAASQPGDSATYLCAVTGNTPLVFGKGTRLSVIA Vbeta: NAGVTQTPKFQVLKTGQSMTLQCAQDMNHEYMSWYRQDPGMGLRLIHYSVGAGITDQGEVPNGYNVSRSTTEDFPLRLLSAAPSQTSVYFCASSYSPYYEQYFGPGTRLTVT | – | recognises
TCR of SEQ ID NOs 36 and 37 (TCR, V domains shown) Valpha: KQEVTQIPAALSVPEGENLVLNCSFTDSAIYNLQWFRQDPGKGLTSLLLIQSSQREQTSGRLNASLDKSSGRSTLYIAASQPGDSATYLCAVTGGTSYGKLTFGQGTILTVHP Vbeta: NAGVTQTPKFRILKIGQSMTLQCTQDMNHNYMYWYRQDPGMGLKLIYYSVGAGITDKGEVPNGYNVSRSTTEDFPLRLELAAPSQTSVYFCASSYWAGVLTEAFFGQGTRLTVV | – | recognises
TCR of SEQ ID NOs 26 and 27 (TCR, V domains shown) Valpha: KQEVTQIPAALSVPEGENLVLNCSFTDSAIYNLQWFRQDPGKGLTSLLLIQSSQREQTSGRLNASLDKSSGRSTLYIAASQPGDSATYLCAVVDSWGKLQFGAGTQVVVTP Vbeta: NAGVTQTPKFQVLKTGQSMTLQCAQDMNHNSMYWYRQDPGMGLRLIHYSVGAGITDQGEVPNGYNVSRSTTEDFPLRLLSAAPSQTSVYFCASSPWGGATEAFFGQGTRLTVV | recognises | –
TCR of SEQ ID NOs 32 and 33 (TCR, V domains shown) Valpha: KQEVTQIPAALSVPEGENLVLNCSFTDSAIYNLQWFRQDPGKGLTSLLLIQSSQREQTSGRLNASLDKSSGRSTLYIAASQPGDSATYLCAVREWDARLMFGDGTQLVVKP Vbeta: NAGVTQTPKFQVLKTGQSMTLQCAQDMNHNSMYWYRQDPGMGLRLIYYSASEGTTDKGEVPNGYNVSRLNKREFSLRLESAAPSQTSVYFCASSLLRGWTEAFFGQGTRLTVV | – | recognises
TCR of SEQ ID NOs 28 and 29 (TCR, V domains shown) Valpha: KQEVTQIPAALSVPEGENLVLNCSFTDSAIYNLQWFRQDPGKGLTSLLLIQSSQREQTSGRLNASLDKSSGRSTLYIAASQPGDSATYLCAVKGRGTYKYIFGTGTRLKVLA Vbeta: NAGVTQTPKFRVLKTGQSMTLQCAQDMNHNSMYWYRQDPGMGLRLIYYSASEGTTDKGEVPNGYNVSRLNKREFSLRLESAAPSQTSVYFCASSYYGGSGAGYEQYFGPGTRLTVT | recognises | –
